For 3 substances, K0.5 and kcat results are on record in paper PMC10465592, “Reduced ADP off-rate by the yeast CCT2 double mutation T394P/R510H which causes Leber congenital amaurosis in humans” (Communications Biology, 2023).

Experiment in all cases: steady-state ATPase, coumarin-labelled phosphate-binding protein fluorescence, fit to two allosteric transitions
Common to all, as to format: biochemical, Saccharomyces cerevisiae
Common to all, as to conditions: 25 °C, pH 7.5 Tris-HCl, 10 mM MgCl2, 50 mM KCl, 20% glycerol, 1 mM DTT, first ring (stronger site), cooperative

Data set [1] deals with T1, Nc1ncnc2c1ncn2[C@@H]1O[C@H](COP(=O)(O)OP(=O)(O)OP(=O)(O)O)[C@@H](O)[C@H]1O.
T1 construct: native complex from yeast cells, two back-to-back rings each of eight distinct subunits CCT1-CCT8; CCT2 mutations introduced in the chromosomal gene
An excerpt: steady-state ATPase, coumarin-labelled phosphate-binding protein fluorescence, fit to two allosteric transitions on CCT/TRiC (Saccharomyces cerevisiae) | In the case of the T394P single mutant, the values of the apparent ATP binding

The test system is the same in data set [2]. An excerpt: steady-state ATPase, coumarin-labelled phosphate-binding protein fluorescence, fit to two allosteric transitions on CCT/TRiC (Saccharomyces cerevisiae) | In the case of the R510H single mutant, the values of the apparent ATP binding
The source holds these as a separate data set.

Data set [3] shares this test system. From the text:
steady-state ATPase, coumarin-labelled phosphate-binding protein fluorescence, fit to two allosteric transitions on CCT/TRiC (Saccharomyces cerevisiae) | In the case of the wild-type, the values of the apparent ATP binding constants
This is another data set of the same source.

Take “CCT/TRiC (Saccharomyces cerevisiae) (Saccharomyces cerevisiae S288C; P39076:T394P)”: in data set [1], the K0.5 is on record as 8.9 (±3.4) μM and the kcat was 0.11 (±0.03) s^-1.
As to “CCT/TRiC (Saccharomyces cerevisiae) (Saccharomyces cerevisiae S288C; P39076:R510H)”, in data set [2], the K0.5 is 7.1 (±2.4) μM and the kcat is listed as 0.10 (±0.03) s^-1.
Consider “CCT/TRiC (Saccharomyces cerevisiae) (Saccharomyces cerevisiae S288C)”, for which, in data set [3], the K0.5 was 8.3 (±1.6) μM and the kcat is 0.043 (±0.005) s^-1.
